{"source": "paper PMC2767407", "substrate": "CN(C)C(=N)NCCC[C@H](N)C(=O)O", "test": "enzyme kinetics of refolded recombinant enzyme", "type": "biochemical, Homo sapiens", "settings": "authors' own initial, unpublished results; assay conditions not told"}
{"protein": "recombinant human DDAH-2 (Homo sapiens) (protein) MGTPGEGLGRCSHALIRGVPESLASGEGAGAGLPALDLAKAQREHGVLGGKLRQRLGLQLLELPPEESLPLGPLLGDTAVIQGDTALITRPWSPARRPEVDGVRKALQDLGLRIVEIGDENATLDGTDVLFTGREFFVGLSKWTNHRGAEIVADTFRDFAVSTVPVSGPSHLRGLCGMGGPRTVVAGSSDAAQKAVRAMAVLTDHPYASLTLPDDAAADCLFLRPGLPGVPPFLLHRGGGDLPNSQEALQKLSDVTLVPVSCSELEKAGAGLSSLCLVLSTRPHS", "values": [{"measurement": "Km", "result": 16, "unit": "µM"}]}
